Data published in patent US20120094271A1, “SELECTING FOR COOPERATIVELY INTERACTING MOLECULES” (Arizona Board of Regents for and on behalf of Arizona State …, priority 2008, published 2012).

How the values were obtained:
[1] = isoelectric point (pI) of peptides; format: physicochemical
[2] = target: β-gal enzyme (Escherichia coli, UniProt P00722); settings: ~12 uM peptide
Description: (§1) Beta-galactosidase (β-gal) (˜3 nM, Alexa647 labeled, the target) was preincubated with a solution containing ˜12 uM of the peptide “[…]” (the ligand). […] The complex between β-gal and the peptide complex was incubated with a […] 10,000 random sequence peptides (the “test molecules”) bound to the surface of a glass slide in an ordered fashion. The incubation took place for two hours and the binding pattern of this was compared to the binding pattern using only the labeled enzyme and no ligand.

[3] = target: Beta-galactosidase (β-gal) (Escherichia coli, UniProt P00722); settings: ~12 uM peptide, ~3 nM β-gal
Sequence of Beta-galactosidase (β-gal) (P00722 2-1024): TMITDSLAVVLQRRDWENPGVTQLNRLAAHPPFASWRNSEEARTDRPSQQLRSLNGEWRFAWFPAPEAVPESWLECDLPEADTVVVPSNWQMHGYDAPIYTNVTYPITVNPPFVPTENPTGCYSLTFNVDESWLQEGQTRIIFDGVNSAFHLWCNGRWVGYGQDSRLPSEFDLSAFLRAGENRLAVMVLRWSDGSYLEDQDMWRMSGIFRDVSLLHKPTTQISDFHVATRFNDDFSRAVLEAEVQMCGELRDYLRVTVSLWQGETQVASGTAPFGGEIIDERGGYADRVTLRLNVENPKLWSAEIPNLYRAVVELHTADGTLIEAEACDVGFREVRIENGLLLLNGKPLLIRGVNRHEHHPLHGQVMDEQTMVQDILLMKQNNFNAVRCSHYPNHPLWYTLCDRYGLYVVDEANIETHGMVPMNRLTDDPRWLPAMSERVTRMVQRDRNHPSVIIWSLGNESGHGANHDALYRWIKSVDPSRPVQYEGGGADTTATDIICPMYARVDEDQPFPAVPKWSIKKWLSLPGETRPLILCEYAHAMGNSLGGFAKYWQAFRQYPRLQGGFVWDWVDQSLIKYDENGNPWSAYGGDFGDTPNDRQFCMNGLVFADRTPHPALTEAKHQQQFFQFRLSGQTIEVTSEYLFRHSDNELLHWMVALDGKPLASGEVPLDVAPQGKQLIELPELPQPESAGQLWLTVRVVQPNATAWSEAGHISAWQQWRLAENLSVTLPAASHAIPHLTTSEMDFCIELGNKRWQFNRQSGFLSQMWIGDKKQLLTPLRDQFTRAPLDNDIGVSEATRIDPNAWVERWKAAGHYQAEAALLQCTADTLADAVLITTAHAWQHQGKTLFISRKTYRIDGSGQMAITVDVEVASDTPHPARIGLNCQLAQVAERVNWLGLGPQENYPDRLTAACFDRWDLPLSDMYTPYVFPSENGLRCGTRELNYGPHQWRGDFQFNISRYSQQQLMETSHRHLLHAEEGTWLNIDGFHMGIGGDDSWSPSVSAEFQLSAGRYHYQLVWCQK
Description: as §1

Sequence of β-gal enzyme (P00722 2-1024): as above

RVFKRYKRWLHVSRYYFGSC
isoelectric point (pI) [1]: 10.6
binding to the β-gal enzyme [2]: binds strongly
β-gal activity inhibited [3]: 95%
